Measured values from PMC3686486.

Legend:
[1] = molecular target: Bacillus thuringiensis subsp. israelensis Cry11Aa toxin (Bacillus thuringiensis subsp. israelensis) (UniProt P21256); assay: SPR
[2] = molecular target: Bacillus thuringiensis subsp. israelensis Cry4Ba toxin (Bacillus thuringiensis subsp. israelensis); assay: SPR
[3] = molecular target: Bacillus thuringiensis subsp. israelensis Cry11Aa toxin (Bacillus thuringiensis subsp. israelensis) (UniProt P21256); assay: ELISA
[4] = molecular target: Bacillus thuringiensis subsp. israelensis Cry4Ba toxin (Bacillus thuringiensis subsp. israelensis); assay: ELISA

Sequence of Bacillus thuringiensis subsp. israelensis Cry4Ba toxin (Bacillus thuringiensis subsp. israelensis) (P05519 whole entry): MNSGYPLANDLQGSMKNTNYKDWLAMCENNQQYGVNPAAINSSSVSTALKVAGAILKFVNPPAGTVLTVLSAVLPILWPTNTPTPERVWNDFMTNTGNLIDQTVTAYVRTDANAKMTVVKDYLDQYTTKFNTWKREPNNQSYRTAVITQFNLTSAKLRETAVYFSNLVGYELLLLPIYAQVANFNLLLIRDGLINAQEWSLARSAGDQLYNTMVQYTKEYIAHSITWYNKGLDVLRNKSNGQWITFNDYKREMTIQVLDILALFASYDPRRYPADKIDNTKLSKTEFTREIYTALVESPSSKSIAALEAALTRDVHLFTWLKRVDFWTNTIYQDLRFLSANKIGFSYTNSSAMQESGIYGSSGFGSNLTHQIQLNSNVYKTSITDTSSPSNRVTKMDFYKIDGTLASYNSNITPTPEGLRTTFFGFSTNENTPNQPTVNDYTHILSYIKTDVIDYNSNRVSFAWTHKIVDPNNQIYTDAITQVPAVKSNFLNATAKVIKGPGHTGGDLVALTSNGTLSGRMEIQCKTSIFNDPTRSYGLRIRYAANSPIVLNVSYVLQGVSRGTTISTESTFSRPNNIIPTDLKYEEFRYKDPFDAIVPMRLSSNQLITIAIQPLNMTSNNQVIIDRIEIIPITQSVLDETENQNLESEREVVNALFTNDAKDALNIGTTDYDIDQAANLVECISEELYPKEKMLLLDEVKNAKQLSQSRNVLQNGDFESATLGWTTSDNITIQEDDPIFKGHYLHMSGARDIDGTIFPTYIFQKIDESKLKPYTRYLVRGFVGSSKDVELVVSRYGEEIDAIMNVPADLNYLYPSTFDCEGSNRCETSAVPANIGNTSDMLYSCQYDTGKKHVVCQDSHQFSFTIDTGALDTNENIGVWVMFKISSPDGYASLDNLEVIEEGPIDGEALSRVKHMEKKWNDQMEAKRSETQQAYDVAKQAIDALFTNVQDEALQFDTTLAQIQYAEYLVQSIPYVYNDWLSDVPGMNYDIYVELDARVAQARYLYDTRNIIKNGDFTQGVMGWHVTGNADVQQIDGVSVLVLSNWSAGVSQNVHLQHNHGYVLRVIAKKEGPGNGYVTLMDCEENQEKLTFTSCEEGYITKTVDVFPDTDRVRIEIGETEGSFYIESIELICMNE

## Aedes aegypti cadherin receptor fragment CR7–11 (cadherin repeats 7–11) (domain or fragment)
[1]
  koff: 0.00252 s⁻¹
[2]
  Kd: 154 nM
  koff: 0.00203 s⁻¹
[3]
  Kd: 14.8 nM
[4]
  Kd: 135 nM
